Laboratory results taken from US20110038790A1.

What was measured:
[1] = target: mAbs 2A4, 8G9 and 7D8, told of as a group; assay: competition ELISA, told for the three mAbs together
[2] = target: mAbs 2A4, 8G9 and 7D8, told of as a group; assay: competition ELISA, value told for the three mAbs together

fold greater IC50 than murine AEF in solution [1] [fold]	IC50 [2] [µg/mL]	Binder
6 to 44		human AA amyloid (renal AA amyloid extract or tissue deposits) (protein, UniProt P0DJI8 19-94, looked up) RSFFSFLGEAFDGARDMWRAYSDMREANYIGSDKYFHARGNYDAAKRGPGGAWAAEVITDARENIQRFFGHGAEDS
	20	murine AA amyloid (AA fibrils, amyloid enhancing factor extract or tissue deposits) (protein, mouse, UniProt P05367 20-94, looked up) GFFSFIGEAFQGAGDMWRAYTDMKEAGWKDGDKYFHARGNYDAAQRGPGGVWAAEKISDARESFQEFFGRGHEDT
